Consider 94 variants from the supplement of paper PMC10567573.

B1: CCDC89 (parent)
chain: LNAELEEKMMQEAEKLKAQGEYSR
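Note: lentivirally expressed fusions sorted by FACS into six bins by GFP to DsRed ratio, PSI derived from sequencing read proportions per bin multiplied by bin number.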

In the data set the parent is B1. Put plainly: protein stability index of a GFP-peptide fusion (GPS, HEK-293T) (PSI 1-6); higher = more stable. Particulars: c terminus: a fixed tail appended.
With QNAELEEKMMQEAEKLKAQGEYSR, the protein stability index was 5.11. With MNAELEEKMMQEAEKLKAQGEYSR, the protein stability index turned out to be 5.2.

As for ENAELEEKMMQEAEKLKAQGEYSR, the protein stability index is 4.91.

Take PNAELEEKMMQEAEKLKAQGEYSR: the protein stability index was determined as 5.4. Then KNAELEEKMMQEAEKLKAQGEYSR, with 5.3; and RNAELEEKMMQEAEKLKAQGEYSR, with 5.17. Take SNAELEEKMMQEAEKLKAQGEYSR: the protein stability index worked out at 5.21.

For WNAELEEKMMQEAEKLKAQGEYSR, the protein stability index stood at 4.8. Under VNAELEEKMMQEAEKLKAQGEYSR stands 4.41; under INAELEEKMMQEAEKLKAQGEYSR, 4.69; under LNAELEEKMMQEAEKLKAQGEYSF, 4.66. For the variant LNAELEEKMMQEAEKLKAQGEYSI, the protein stability index worked out at 4.86. On to LNAELEEKMMQEAEKLKAQGEYSN, for which the protein stability index turned out to be 5.03.

Consider LNAELEEKMMQEAEKLKAQGEYSH, for which the protein stability index is 5.78. Regarding LNAELEEKMMQEAEKLKAQGEYSD, the protein stability index amounted to 5.67.

Consider LNAELEEKMMQEAEKLKAQGEYSM, for which the protein stability index turned out to be 4.99.

For LNAELEEKMMQEAEKLKAQGEYSK, the protein stability index amounted to 5.53.

Regarding LNAELEEKMMQEAEHLKAQGEYSR, the protein stability index came to 5.2. Take LNAELEEKMMQEAENLKAQGEYSR: the protein stability index is 4.71.

In the case of LNAELEEKMMQEAEGLKAQGEYSR, the protein stability index stood at 5.26. For LNAELEEKMMQEAEELKAQGEYSR, the protein stability index worked out at 5.06. For LNAELEEKMMQEAEQLKAQGEYSR, the protein stability index came out at 5.41.

Take LNAELEEKMMQEAELLKAQGEYSR: the protein stability index stood at 4.99. LNAPLEEKMMQEAEKLKAQGEYSR: the protein stability index amounted to 3.94. For LNAILEEKMMQEAEKLKAQGEYSR, the protein stability index came to 4.6.

With LNALLEEKMMQEAEKLKAQGEYSR, the protein stability index came out at 4.56. Then LNADLEEKMMQEAEKLKAQGEYSR, with 4.94.

Consider LNAVLEEKMMQEAEKLKAQGEYSR, for which the protein stability index was found to be 3.95. Take LNAFLEEKMMQEAEKLKAQGEYSR: the protein stability index was found to be 4.47. In the case of LNAELEEKMMQEAEKLRAQGEYSR, the protein stability index turned out to be 4.41. As for LNAELEEKMMQEAEKLLAQGEYSR, the protein stability index stood at 4.54. In the case of LNAELEEKMMQEAEKLHAQGEYSR, the protein stability index was 3.87. For LNAELEEKMMQEAEKLWAQGEYSR, the protein stability index was 3.79. In the case of LNAELEEKMMQEAEKLDAQGEYSR, the protein stability index worked out at 5.47. For the variant LNAELEEKMMQEAEKLFAQGEYSR, the protein stability index came out at 4.3. Then LNAELEEKMMQEAEKLCAQGEYSR, with 4.02; and LNAELEEKMMQEAEKLPAQGEYSR, with 5.65; and LNAELEEKMMQEAEKVKAQGEYSR, with 4.97. As for LNAELEEKMMQEAEKAKAQGEYSR, the protein stability index turned out to be 5.1. As to LNAELEEKMMQEAEKDKAQGEYSR, the protein stability index stood at 5.77.

As to LNAELEEKMMQEAEKYKAQGEYSR, the protein stability index turned out to be 4.37. Under LNAELEEKMMQEAEKKKAQGEYSR stands 4.85.

In the case of LNAELEEKMMQRAEKLKAQGEYSR, the protein stability index is 4.26. For the variant LNAELEEKMMQNAEKLKAQGEYSR, the protein stability index was 4.75. Then LNAELEEKMMQWAEKLKAQGEYSR, with 4.42; and LNAELEEKMMQTAEKLKAQGEYSR, with 4.4. LNAELEEKMMQYAEKLKAQGEYSR: the protein stability index came out at 3.47. On to LNAELEEKMMQLAEKLKAQGEYSR, for which the protein stability index was determined as 2.92. For the variant LNAELEEKMMQAAEKLKAQGEYSR, the protein stability index was found to be 4.42. With LNAELEEKMMQCAEKLKAQGEYSR, the protein stability index was determined as 4.38. Regarding LNAELEEKMMQFAEKLKAQGEYSR, the protein stability index came to 3.56. As to LNAELEERMMQEAEKLKAQGEYSR, the protein stability index was 4.98.

For the variant LNAELEEHMMQEAEKLKAQGEYSR, the protein stability index is 5.36. In the case of LNAELEEQMMQEAEKLKAQGEYSR, the protein stability index stood at 5.02. LNAELEECMMQEAEKLKAQGEYSR: the protein stability index amounted to 5.15. Then LNAELEEDMMQEAEKLKAQGEYSR, with 4.78; and LNAELEEWMMQEAEKLKAQGEYSR, with 4.5. Then LNAELEEAMMQEAEKLKAQGEYSR, with 4.9; and LNAELEENMMQEAEKLKAQGEYSR, with 4.49; and LNAELEEMMMQEAEKLKAQGEYSR, with 4.92. Turning to LNAELEEVMMQEAEKLKAQGEYSR, the protein stability index was 4.86. LNAELEEKMMQEACKLKAQGEYSR: the protein stability index amounted to 4.33. Consider LNAELEEKMMQEAHKLKAQGEYSR, for which the protein stability index stood at 5.41. Take LNAELEEKMMQEAFKLKAQGEYSR: the protein stability index was found to be 4.05. Consider LNAELEEKMMQEAAKLKAQGEYSR, for which the protein stability index stood at 4. Consider LNAELEEKMMQEAQKLKAQGEYSR, for which the protein stability index worked out at 5.15. Regarding LNAELEEKMMQEANKLKAQGEYSR, the protein stability index stood at 4.66.

As for LNAELEEKMMDEAEKLKAQGEYSR, the protein stability index is 5.7. Turning to LNAELEEKMMCEAEKLKAQGEYSR, the protein stability index came out at 5.38. As for LNAELEEKMMYEAEKLKAQGEYSR, the protein stability index turned out to be 4.86. Consider LNAELEEKMMSEAEKLKAQGEYSR, for which the protein stability index turned out to be 5.49. Under LNAELEEKMMNEAEKLKAQGEYSR stands 5.04. For the variant LNAELEEKMMTEAEKLKAQGEYSR, the protein stability index amounted to 5.67. Consider LNAELEEKMMKEAEKLKAQGEYSR, for which the protein stability index came out at 4.94. As for LNAELEEKMMWEAEKLKAQGEYSR, the protein stability index is 4.22. Then LNAELEEKMMQEVEKLKAQGEYSR, with 4.64; and LNAELEEKMMQEFEKLKAQGEYSR, with 4.49. Consider LNAELEEKMMQESEKLKAQGEYSR, for which the protein stability index stood at 4.68. As to LNAELEEKMMQEEEKLKAQGEYSR, the protein stability index was found to be 5.71. With LNAELEEKMMQEREKLKAQGEYSR, the protein stability index came out at 4.99. In the case of LNAELEEKMMQEQEKLKAQGEYSR, the protein stability index is 4.5.

Regarding LNAELEEKMMQETEKLKAQGEYSR, the protein stability index worked out at 5.26. For the variant LNAELEEKMMQEMEKLKAQGEYSR, the protein stability index amounted to 5. Then LNAELEEKMMQEWEKLKAQGEYSR, with 4.13; and LNAELEEKMMQEAEKLKAQGEDSR, with 5.99; and LNAELEEKMMQEAEKLKAQGEFSR, with 4.46.

For LNAELEEKMMQEAEKLKAQGEGSR, the protein stability index came out at 5.63.

For LNAELEEKMMQEAEKLKAQGEMSR, the protein stability index worked out at 5.29. For LNAELEEKMMQEAEKLKAQGELSR, the protein stability index amounted to 5.34. Turning to LNAELEEKMMQEAEKLKAQGESSR, the protein stability index came out at 5.28. Turning to LNAELEEKMMQEAEKLKAQGENSR, the protein stability index amounted to 5.79. For LNAELEEKMMQEAEKLKAQGEQSR, the protein stability index was 5.64. Turning to LNAELEEKMMQEAEKLKAQGEISR, the protein stability index was 5.29.

As to LNAELEEKMMQEAEKLKAQGEYKR, the protein stability index was determined as 4.92.
